Consider 2 substances from paper PMC5422525.

The target of assay [1] is Escherichia coli ClpX (E. coli) (UniProt P0A6H1).
The target of assay [2] is Caulobacter crescentus ClpX (C. crescentus) (UniProt B8GX14).
Chain of UniProt B8GX14 (B8GX14 whole entry): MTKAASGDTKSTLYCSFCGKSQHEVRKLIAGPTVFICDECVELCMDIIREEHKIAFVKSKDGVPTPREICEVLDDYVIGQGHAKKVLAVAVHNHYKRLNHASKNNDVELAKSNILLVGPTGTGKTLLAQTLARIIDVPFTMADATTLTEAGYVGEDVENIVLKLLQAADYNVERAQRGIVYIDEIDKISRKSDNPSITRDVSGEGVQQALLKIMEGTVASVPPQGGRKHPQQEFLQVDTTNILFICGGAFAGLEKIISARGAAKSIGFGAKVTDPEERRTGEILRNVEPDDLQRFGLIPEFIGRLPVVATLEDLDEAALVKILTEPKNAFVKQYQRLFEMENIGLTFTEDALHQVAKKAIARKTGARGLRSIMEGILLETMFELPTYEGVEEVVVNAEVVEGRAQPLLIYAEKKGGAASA

Chain of UniProt P0A6H1 (P0A6H1 whole entry): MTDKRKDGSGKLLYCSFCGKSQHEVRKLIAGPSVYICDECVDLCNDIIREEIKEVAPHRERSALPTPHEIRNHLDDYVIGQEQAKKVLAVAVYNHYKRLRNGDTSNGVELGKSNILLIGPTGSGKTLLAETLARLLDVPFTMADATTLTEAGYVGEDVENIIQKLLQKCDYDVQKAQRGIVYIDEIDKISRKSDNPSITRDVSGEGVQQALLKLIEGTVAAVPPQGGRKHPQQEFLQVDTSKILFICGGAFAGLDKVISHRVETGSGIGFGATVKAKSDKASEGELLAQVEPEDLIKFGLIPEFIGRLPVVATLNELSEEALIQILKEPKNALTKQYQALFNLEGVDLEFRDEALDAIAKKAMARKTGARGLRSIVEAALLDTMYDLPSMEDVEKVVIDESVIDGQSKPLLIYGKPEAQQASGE

Take “Escherichia coli ClpP (from UniProt P0A6G7 15-207) (enzyme)”: the K (activation): degradation of 1 uM GFP-ssrA by 50 nM ClpX6 with varying concentrations of ClpP14, initial rates fitted to a first-order binding equation in assay [1] stood at 24.1 nM.

As to “Caulobacter crescentus ClpP (from UniProt B8GX16 1-209) (enzyme)”, the K (activation): degradation of 1 uM GFP-ssrA by 50 nM ClpX6 with varying concentrations of ClpP14, initial rates fitted to a first-order binding equation in assay [1] was found to be 12.1 nM; in assay [2] it was 9.1 nM.
